In article doi:10.1101/2025.10.28.684701:

Target: T1, MBP-CFLAP1 (AKS1) (Arabidopsis thaliana, UniProt Q9C690 1-379)
T1 sequence: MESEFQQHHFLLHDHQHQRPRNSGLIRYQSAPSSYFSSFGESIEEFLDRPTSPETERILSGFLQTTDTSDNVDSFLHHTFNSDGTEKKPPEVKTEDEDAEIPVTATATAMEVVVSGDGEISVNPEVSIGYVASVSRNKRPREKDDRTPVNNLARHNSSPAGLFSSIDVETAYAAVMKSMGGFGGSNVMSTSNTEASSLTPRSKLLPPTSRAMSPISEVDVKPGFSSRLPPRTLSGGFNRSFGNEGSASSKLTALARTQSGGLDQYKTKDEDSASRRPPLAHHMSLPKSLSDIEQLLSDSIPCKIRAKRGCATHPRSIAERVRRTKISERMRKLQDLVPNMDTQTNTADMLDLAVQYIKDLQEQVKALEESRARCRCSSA
Experiment: EMSA

B1: pCYP86A4 P2 probe (dsDNA)
DNA 1: CCACTTTGGTTAACATTTGAGGAAT
DNA 2: ATTCCTCAAATGTTAACCAAAGTGG
B1: binds.

B2: pBDG1 P2 probe (dsDNA)
DNA 1: TGGCCACATGCCATCATATCACTTGTCCAT
DNA 2: ATGGACAAGTGATATGATGGCATGTGGCCA
B2: binds.

B3: pCYP86A2 P2 probe (dsDNA)
DNA 1: GATATTGCAGTTGCAGCGTACACAAGTCAG
DNA 2: CTGACTTGTGTACGCTGCAACTGCAATATC
B3: binds.

B4: pCYP86A2 P3 probe (dsDNA)
DNA 1: GATCATTGGTTTACGATCACTTGCAAAGTC
DNA 2: GACTTTGCAAGTGATCGTAAACCAATGATC
B4: binds.

B5: pBDG1 P1 probe (dsDNA)
DNA 1: CGTCGTTGACCTCTGCATTACAATTGTGTC
DNA 2: GACACAATTGTAATGCAGAGGTCAACGACG
B5: binds.

B6: pCYP86A4 P1 probe (dsDNA)
DNA 1: TCGGAAAAGTACACTTGGGCTTATA
DNA 2: TATAAGCCCAAGTGTACTTTTCCGA
B6: binds.

B7: pCYP86A2 P1 probe (dsDNA)
DNA 1: CTACGTACAGTTGTGTTCCATTTGTTACAA
DNA 2: TTGTAACAAATGGAACACAACTGTACGTAG
B7: binds.
